Results taken from the supplement of paper PMC12764529.
± gives the half width of the 95% confidence interval.

How the values were obtained:
[1] = folding stability dG unfold from trypsin proteolysis; higher = more stable
In short: (§1)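 Mini-proteins designed to be under 80 residues and free of cysteine were carried in a PA-tagged cDNA display construct and digested with trypsin and with chymotrypsin. Each protease was applied at 11 threefold-diluted concentrations, alongside a no-protease condition, before sequencing. K50 came from Bayesian fitting of the sequencing counts, and unfolding free energy was obtained by comparing it with a sequence-predicted unfolded-state K50 and a shared folded-state K50, for each protease separately or for both together. Designs were retained only if their AlphaFold2 dimer inter-PAE exceeded 15.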

[2] = folding stability dG unfold from chymotrypsin proteolysis; higher = more stable
In short: as §1

[3] = folding stability dG unfold (combined trypsin and chymotrypsin); higher = more stable
In short: as §1

Row | Sequence | folding stability dG unfold [1] | folding stability dG unfold [2] | folding stability dG unfold [3]
1 | SAGGMVTVDTDPTEDGTLRVTVTVPRPDGPALTLTLDFPPEAGSLAVVLARADEALAAEMARRGLALSAGGS [r8_464_JUSTAS] | -0.0072 ± 0.27 kcal/mol | 1.95 ± 0.14 kcal/mol | 1.44 ± 0.22 kcal/mol
2 | SAGGMLTYTTEYDPRGVLTVREYDPSTSKPISTHIIELGPEPVPPPVPGFPQVTPSGELRLVEDPAGPSAGG [r13_9_JUSTAS] | -0.178 ± 0.12 kcal/mol | -0.0943 ± 0.33 kcal/mol | -0.0536 ± 0.15 kcal/mol
3 | SAGPDKPLKIESIGGKFNPDNGVISIKLKVEDPGDGKTYDYTMQFPVRDPDNGKPYMFTFPMRIKVPDSAGG [r19_129_TrROS] | 0.645 ± 0.072 kcal/mol | 0.647 ± 0.16 kcal/mol | 0.607 ± 0.13 kcal/mol
4 | SANGEMTMMFEFEIFFPGLGYRGKIYVMMRIEPTPNQIRIDLMIMIEIEPIPPPPPKVPPEQNPEDADDSAG [r14_435_TrROS] | 3.82 ± 0.21 kcal/mol | 5.18 ± 0.2 kcal/mol | 5.23 ± 0.48 kcal/mol
5 | SAGGNPSASPVVTETELPDGSRVTTTTYPSGTTTRTVTDLVTGKKTLVTTTTTPGTGATTTTTTPVPPSAGG [r13_822_JUSTAS] | 0.151 ± 0.019 kcal/mol | 1.51 ± 0.022 kcal/mol | 1.08 ± 0.03 kcal/mol
6 | SAGGDIKFEIGLELLPDGILVIRGSVEVRMGGQSVTYEFIIIVKIKPIPPPPPPPKPKYNPEDGKWKSAGGS [r8_269_TrROS] | 2.32 ± 0.076 kcal/mol | 2.89 ± 0.11 kcal/mol | 2.58 ± 0.22 kcal/mol
7 | SWWYIVTIKIWKPGNGEPKGPIMLFVRSPEEAEEIAEEPAPEHGYDVEVNVKRIPPDDMDDPEQMKEMMNSA [r9_864_TrROS] | 1.82 ± 0.035 kcal/mol | 2.56 ± 0.13 kcal/mol | 2.07 ± 0.37 kcal/mol
8 | SAGGGPPPVEVTTSTDPSTGKVTTTVTAGPAGTRFTSSSPNGSSTTTTTVTYVGDTWEVSTSSTSSSSAGGS [r16_631_JUSTAS] | 1.21 ± 0.061 kcal/mol | 1.37 ± 0.11 kcal/mol | 1.31 ± 0.1 kcal/mol
9 | SAGGSAGGWREIKIYVPPGMPLEEIKDLIKEFFPGYKVEIDEIEREDNYVKATIRIQPLPPGDFSAGGSAGG [r6_623_TrROS] | 3.08 ± 0.092 kcal/mol | 2.81 ± 0.04 kcal/mol | 2.96 ± 0.071 kcal/mol
10 | SAGGSAGGSAMKTSSGTVSFPDSTVKLSYENFGDGSVKKSVVEVVSRPPPPPVPPSNPHYLQSAGGSAGGSA [r18_176_JUSTAS] | 0.667 ± 0.12 kcal/mol | 0.567 ± 0.22 kcal/mol | 0.702 ± 0.39 kcal/mol
11 | SAGGSAGGMPEYRVLDIEIETRPDMTPEEAVEEIRKALEPLGAIRVEAEPLPDGRIRVRVVLPESAGGSAGG [r6_881_TrMRF] | 3.5 ± 0.28 kcal/mol | 2.45 ± 0.25 kcal/mol | 3.27 ± 0.32 kcal/mol
12 | SAGGEAEVVEPEEKLEIVDKETGKKITVYKVKNKETGEEVVLVEIEKNGKKYTVLMTKDELEALLKKSAGGS [r16_603_TrROS_Hall] | 2.38 ± 0.21 kcal/mol | 3.29 ± 0.057 kcal/mol | 2.98 ± 0.28 kcal/mol
13 | SAGGSAGGSAGSTVTLELEIDGVRITVKAELTPDGELRLTITEVEVLPPPPVVHPDDPEALKSAGGSAGGSA [r18_176_TrROS_Hall] | 1.54 ± 0.049 kcal/mol | 1.1 ± 0.064 kcal/mol | 1.33 ± 0.11 kcal/mol
14 | SGMIDVDLDYTTEDGRPVKVSASYDPATGVLTFKVPDNDDVIIATVTEVTTEDESVTVTLNVTRYSKELLSA [r9_587_JUSTAS] | 0.957 ± 0.072 kcal/mol | 2.54 ± 0.066 kcal/mol | 2.09 ± 0.14 kcal/mol
15 | SAGGSAGGSADKIPVKIKVKLKDGDKEYEVTVTVTLDVNDPNLDAFAKELASSGKIEEVEASAGGSAGGSAG [r3_30_TrMRF] | 0.877 ± 0.072 kcal/mol | 1.03 ± 0.15 kcal/mol | 0.973 ± 0.19 kcal/mol
16 | SAGGSASSSLEVEVTAESPDPETGELRVTAVITTTYFDPSTGSTSTTTTTLTLTPEELAALVAALSSAGGSA [r2_357_JUSTAS] | 3.92 ± 0.071 kcal/mol | 4.35 ± 0.049 kcal/mol | 4.332 ± 0.043 kcal/mol
17 | SAGMKPNETLPNAIIRIENSKGKVKEFTLPNVVSIEEIDEKNGIITLTLPNNKKITLKVPKNAKITIEGSAG [r5_762_TrMRF] | 3.04 ± 0.11 kcal/mol | 3.5 ± 0.049 kcal/mol | 3.37 ± 0.049 kcal/mol
18 | SAGGSAGGMRLEIVVEMSEEEARELAEALRRELEERGYRVRVEVRRLPDGRLVVRVEIEPAPEPSAGGSAGG [r6_597_TrROS_Hall] | 4.47 ± 0.19 kcal/mol | 4.49 ± 0.093 kcal/mol | 4.63 ± 0.17 kcal/mol
19 | SAGGSAGGSKKKLTLTLKVEYVDEETGEKRTVTLTITAESEEEAKAALEELAKKLPPGARIEVSAGGSAGGS [r20_211_TrROS_Hall] | 3.3 ± 0.16 kcal/mol | 4.44 ± 0.11 kcal/mol | 4.21 ± 0.19 kcal/mol
20 | SAGGSAKITIEYDPETGTITIKVELTNEDNGKKVTKEYEIKVDGKLIRIKIDANTGEIVEIEVLPPSAGGSA [r2_331_TrROS_Hall] | 3.52 ± 0.17 kcal/mol | 3.38 ± 0.13 kcal/mol | 3.55 ± 0.15 kcal/mol
21 | SAGAKVTVEPVKVEPLPNGEVKVTAKVTIYDPNTTKPTEIEVTGTYKLHPNGKPVKPETIVAEAIKKAASAG [r5_604_TrMRF] | 0.426 ± 0.038 kcal/mol | 0.337 ± 0.17 kcal/mol | 0.459 ± 0.14 kcal/mol
